According to paper PMC6335423, “Recurrent activating mutations of PPARγ associated with luminal bladder tumors” (Nature Communications, 2019):
Ends that are not written are not given here.

Experiments:
[1] = target: T1, PPARγ ligand-binding domain, wild type, His-hPPARγ (231–505) (human, UniProt P37231-1 231-505); test: MST; no ligand; unlabeled PPARγ LBD (100 µM to 2 nM) titrated into 150 nM fluorescent PGC1α peptide; 20 mM Tris pH 8.0, 200 mM NaCl, 1 mM TCEP, 0.05% Tween 20, 25 °C; apparent Kd; details: both partners purified
T1 construct: Cloned in pET15b; also called PPARγ LBD WT; PPARγ WT; source: E. coli BL21 DE3, purified (Ni-NTA, size exclusion on Superdex 200)
T1 sequence (looked up): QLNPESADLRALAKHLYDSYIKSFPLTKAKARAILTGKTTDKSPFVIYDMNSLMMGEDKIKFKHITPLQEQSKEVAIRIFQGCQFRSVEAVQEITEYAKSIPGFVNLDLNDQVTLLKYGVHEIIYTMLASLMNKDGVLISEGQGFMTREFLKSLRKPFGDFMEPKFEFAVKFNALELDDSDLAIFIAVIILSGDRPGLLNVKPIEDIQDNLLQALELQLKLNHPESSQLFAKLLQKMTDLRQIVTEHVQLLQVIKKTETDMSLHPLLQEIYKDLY

[2] = target: T2, PPARγ ligand-binding domain, wild type, His-hPPARγ (231–505) (human, UniProt P37231-1 231-505); test: MST; with GW1929
T2 chain: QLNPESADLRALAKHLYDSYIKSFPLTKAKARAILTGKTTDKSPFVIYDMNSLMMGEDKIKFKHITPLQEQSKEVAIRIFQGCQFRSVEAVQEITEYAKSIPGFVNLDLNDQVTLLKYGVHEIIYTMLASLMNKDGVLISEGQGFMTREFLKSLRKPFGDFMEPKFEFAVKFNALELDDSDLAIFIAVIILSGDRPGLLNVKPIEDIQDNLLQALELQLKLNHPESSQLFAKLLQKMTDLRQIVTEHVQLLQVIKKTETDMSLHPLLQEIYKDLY

[3] = target: T2, PPARγ ligand-binding domain, wild type, …; test: MST; apo (no ligand)
[4] = target: T2, PPARγ ligand-binding domain, wild type, …; test: MST; with rosiglitazone
[5] = target: T1, PPARγ ligand-binding domain, wild type, …; test: native MS; native electrospray MS, 5 µM protein in 200 mM ammonium acetate pH 6.8; GW1929 and coactivator peptide added; details: both partners purified

| Binder | binding result [1] | Kd [2] | Kd [3] | Kd [4] | binding result [5] |
| --- | --- | --- | --- | --- | --- |
| EAEEPSLLKKLLLAPA (also: fluorescent label (dye and position not given here), PGC1α (PPARGC1A) residues 137-152, NR1 LXXLL motif; also called fluorescently labeled PGC1α peptide; PGC1α NR1 motif; source: bought: Thermo-Fisher (synthetic peptide)) [fluorescent PGC1α peptide (137-EAEEPSLLKKLLLAPA-152)] | binds | 380 nM | 1700 nM | 1000 nM |  |
| EEPSLLKKLLLAPA (PGC1α (PPARGC1A) residues 139-152; source: synthetic peptide (IGBMC peptide synthesis common facility)) [PGC1α peptide (139-EEPSLLKKLLLAPA-152)] |  |  |  |  | binds |
